From the NTF2 design screens of Basanta et al. (2020) come the findings set out here.

This series in a line: protease stability score; higher = more stable; yeast display proteolysis, trypsin and chymotrypsin.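 Note: log10 excess protease needed over predicted unfolded state with 0 meaning unfolded.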
The sequence “DDRLNEMARRFITLLTTGDPKEAHKYMDENARFQIGDERYHGMHEFERLLTERQKTSRVQINSLEVQHEPNRANIHADVENERNGQPRRFDVIIELHAHNGRIKEITYEYRQ” had a protease stability score of -0.009.

“DDRLREVFEHIVELFKTGNPEELSRNVDPNARYQYGDKELHGRDHYRREVKDLIDTMRYEQEVDKVQKRGEKVRIEAEARHKENGRPNEFTFVIEFKAHNGKVKHEVQHESS” yielded a protease stability score of -0.15.

Sequence “DDRNKHIFKKIIEAERTGDEDKLRQNFDPNARFRIGNQTYHGREHWADRVSDLRKKIRVEIKIKRVQVDGDKVVVKYQVVYNVNGRPKKDTFRVVLHFQNGKAKHRTFQIDEERKEHLDS” came in with a protease stability score of 0.252.

In turn, “DDRNNHRAKTFLTALNHNDPDQMERMVDENAQVQVGDKSYRGREDMKRWLKELIDSIRLEVHVHSLTQHNGVAVADIEETRESNGDPEEDSFTLYIQVHNGQAKRLEESKKS” showed a protease stability score of 0.552.

Turning to “DDRNQAEKQVDEMRKIAKTGDEDRMADLFIDNPRFNVGDETYHGREQVVKYFRDTFRQVDHMHITLRRLSVHNGRVKAEFDVTLNRNGRETKDIFVVIQVKHNGTLRIESVHQK”, the protease stability score was found to be 0.781.

On to “DDRQIEVLKDYIKAVQQNDPDRMRQNADPNATFNVGDKRYHGMTEYAEEVAKHLKEMRFEIRDIRLRDHNGKVHVEYEAEYEVNGQPFTQKVSFVAEVTNGHVKRVHYSTDEDLTRIEQK”, for which the protease stability score was -0.24.

Sequence “DDRQMDHFAHQFERNNPDEYRKMLDPNARAEYGDKDYSGREQVQTLADTLHKQFDHLEVKDYRFNNGRAEFRYEAKFNGKTLTMKMVAEVKNGHIKHVVFRVTDPRQRKDLQREFG” registered a protease stability score of 0.156.

Turning to “DDRQQRVMEKILTAVQKGDEKKVKDQMDPNVKVHVGEFHYQGEEQLEKTLRHRTKELEIEYREITFRVDNGNVHVDVKAQLNNNGKPQQFTQHFSAEVDGDRVKTVHVEVKQ”, the protease stability score is -0.533.

With “DDRQRRQFAERVQKVLRTGDPERFMQMADENVQVHVGDQTYRGRDQAEKNMREFVKRVDHLQIISFHFEGNHAVIVFIAHFDGKEATIEMVIRFSNGHIKEMKINPDQIRQMRS”, the protease stability score is 1.21.

Sequence “DDRQVEELVRIMQRGNFKDLASNLDENVHVKVGNRTYHGREKAETVFNRLQQRIDHYEIIHVQERPNRAQVRFRFRVNGRTVEATVKAQAHNGRIKEMNLQARDEDAQREIDHAID” had a protease stability score of 1.24.

As to “DDRQVERLAKEVVKNLETGNPNEFMKLMDPNAKFEVGDQDIHGREQWSEWVDHLSKHVDSLEVKSVTAHNGRVDIDMVFRVNGEKRVVKIVITVKNGHIKEMEIREQ”, the protease stability score was 1.2.

Sequence “DDRRLAQEMANQFRKIRETGNPDDIVQLADPNAKYRIGERDVHGKEEIKKDFQEEKDRVDRIEVEIDSIEVKNGEVRVTFILRRTHNGRRESRTLVMNARVDNGRLTMESATEK” registered a protease stability score of -0.205.

In turn, “DDRTKMQELLDKLREAAEDGDRRKVHQLFDENARFEIGDTEFHGMTSAAKRLAEEWKRHDHVQFSVREIRVEPGRFVVHMQERNSHNGKSDSKNVVMTVTKSNGQIRATKVKVR” had a protease stability score of 0.387.

Sequence “DDRTQKRLAEEVVRILNRGDEDQIRKMADKDVKARVGEQSVHGRETALRLLIEFNRRVDHVDIRHVHTEEGRVEVDLVAEVNGRRIRMHIVFILHNGKLHKVEMDPDELRKLEK” had a protease stability score of 0.868.

“DDRVADLLRKWWEAVRTGDPDRAANQVDPNAKVEYGDKQVHGREQIRTELDERKRNAKFEYKIKTYNKDEDHVKVEAEAVVVINGRPHKFTYQVHARADGDKIKHMRIELPEDVLHEMQG” gave a protease stability score of 0.553.

“DDRVLHEMVKVMETGDFEKFARLADPNATIEYGDKKIHGREDAEKFATKIKQRVDHVQIKTYSVKGDSARIHFELNVNGSRIDMVLVLQVKNGRLRRASFEFRDREDSKEFVKRVH” came in with a protease stability score of 0.068.

The sequence “DDSAMRQIHDLLRHIETGNEKEVSKQMDPNARLQIGDQVYHGNEQARRAWKRERDEIRISIKRVRMDAKGDKVFIEMDLVREKDGTPDRLTMRITVQQHDGRVKDLVQEERR” had a protease stability score of 0.07.

“DDSANERAKKVMHALKTGDPDTMSELLDPNATVDVGEKQVKGMDNIVDILRKERDQIRYSIDVKRMNAKGDKVVVDATRESHHNGQPRSWHFTIFFNNTNGRVKNLKVEESG”: the protease stability score was 0.626.

“DDSDVNQAQTIWKHWQQGNFREIAKNADPNVKINVGDKQYHGREEYESDMQEHRNQIRVKITSMSQNKNGDKAVVDAVIVNEENGEPEEKRFVWYIKAHNGRIVSFRVEDEK” showed a protease stability score of 0.176.

Sequence “DDSEIRTLAKQLAHVIETGDHEHFRKMAPPDVRARIGETEYHGREQVAEALKQERRTADHVQVEDVKASGNNVTLIITQKENGRRDRFKMVFEFHNGKVKFVSQEKQ” displayed a protease stability score of -0.189.

Sequence “DDSENRNFHQFVRDWTTGNPEKLAELADENARVNVGDKTVHGRDHIRTLFEKLIRRMDIELRDVKFQKSNGEISIKARMVLNENGRPKEFVMKNNAQAEGEKIKNFVLNDDS” registered a protease stability score of 0.048.

Sequence “DDSFVEKLQELLEDGNFERVADMADPNAQFRYGNRDLHGREELRKDAREFLSRVDHYQVDSFHVDNGQLNVTAQATFDGRDYKFTMTLRAKNGRVKSFKISFTSEQQNRQLDEKRE” showed a protease stability score of -0.004.

In the case of “DDSKAEKFARDYVKNLHRGNQDQLARMVDPNVHFEYGDKQVHGREDYKQFNRRLRERVDHIQLKDFRIQGEKIRIEANFNVNGVNADIVFNFQIENGRVTRANMHFRSEDQEKQFHQ”, the protease stability score was 0.161.

Sequence “DDSKERSNLEKFAKALETGDPKKLQQQLDPDARMQIGDKTYHGRHDMEKWLEEFNRQADHYQIDTFDQHNGTLNIQMRMNINGNTVSMTVNVVAKNGRVKHVTFDPDVWRQLES” gave a protease stability score of 0.809.

Sequence “DDSLEKELEDIMRTGNFEELVKNADKDARAQYGNRTYHGREDAKEAAHQFRKHVDSIQIDSIHRHNGHMEVDMQVNINGRNVRATMTIEAHNGRVKQFRVEVTDEEFHKTLHRLLE” displayed a protease stability score of 0.929.

On to “DDSLLDKVKEIFSVMRTGDPDKMKKLADKHATFEVGDKQIHGREELSEIMRRRRDEQKVSVEVKRVKKQGDTANIVFTVTNNHNGTPKVETQTMTVNMSNGKITYVNVQNDK”, for which the protease stability score was -0.007.

The sequence “DDSMVRLAHTVIDNWRQGDEKKAMELLDPNARAEIGDKTIHGREQMSDEIRKQRTEQRLDIKVKRLEDRPGHVVIDAENTNSKNGRPRTNRVQIHLTAQGDKLKRLRIQNDS” gave a protease stability score of -0.05.

For “DDSNNEIVKHMLEALHTGDPDQMSRLVDPNVRVNVGNKEVHGREQQREEVEKIKRDMRFEADLDDYHVHGEHLEFKVTYKAQINGKPYHFSADLNLTFHNGKLQSESARMDQHELEKLDG”, the protease stability score stood at 0.029.

On to “DDSQVRSALEQAKTGNFQNLRNQLDPNAHVRVGDKTLNGKEEAVSYMQEFRDQVDRIRVDSVTTQGEKAVADLTVVINGHRVRFELVVNIRNGRAREVELRSTSEEIKKHLEHLDS”, for which the protease stability score was found to be 0.481.

As to “DDSREIEKFMTTVERALRRGDEHKLREMFPEDAHLEVGDKTYRGRENVVEANKEWANKFDHIHIRYDKLRVDNGKFDITITYVLKHNGRQETRRAKVVAHKTNGQVKMKSVFDT”, the protease stability score turned out to be 0.482.

In the case of “DDSRRATEFNKQYREVFRTGDPRKFEDYMDPNARAHYGDKELHGREQLRNYWKELTDNADHLDVQIHHLHVSGDDVNVDFQWNIDVNGENVQRKVVIIARLENGQVRAKQIVEK”, the protease stability score was -0.143.

Regarding “DDSVKRLIKNLLKAWEHGDEHRARELMDEDARVTYGDQQVTGREEVARHHATRQKEIRYSIENMDVKVQGNHVEIHVEQQQTHNGEPKQFRYTMDVEARNGKIKRFEIQERR”, the protease stability score worked out at 0.187.

In the case of “DDSVMTAVKELLTNIQSGDPDKIQRYLDPNARMQVGDKEIHGRENIAKEIHDQNNEMEVDIEVKHVEVTGDTAIVHADVQEFHNGRPDTFHLVVRAKQDNGKMTSVVFEKRK”, the protease stability score is -0.268.

For “DDTAAEVLKEQLDVLKQGDPDRVNQLVDPNAKRHVGDKNYRGMNSMADEDAQKMRNSRIKYTHWEQERSGDKVRVVVVYIEDHNGEPDTHRREFVFKASNGRFHQLNQDDDQ”, the protease stability score is -0.232.

On to “DDTAIRIFEELQKAVENGDEREVQENLDEDAKIEYGNRTLHGREKAAKDYKRMHDQMEFTYDMKHFTVQGDKARLKVEYKATVNGKPYSDSVDVEVKIKNGKIKYIRFQFDEHKQRERDS”, for which the protease stability score was determined as 0.894.

The sequence “DDTAMRVYQEIVKALQTGDPDKVRNNFDENVEYHVGDTKVHGRDEALERIKKRMDEIRVEIQLQKVETQGDKVIVRARYVNETNGKPKQSNNNIIFKVKNGKMTHMQEREDS” came in with a protease stability score of -0.045.

The sequence “DDTARQVYEDAADALRTGDEDEFRKQVDKDVRLTYGDKFIHGREEAARQLRDRQSTMRDEWDINEVQVRNGTINVDANKRNHENGQPQDVNLRVEVHAHNGKLTELRYTVQQ” had a protease stability score of -0.177.

Take “DDTAVKIATRFWKAVETNDEQTLRDNLDPNVEVRYGDKTYHGMEDILKRLRHDADNMRHKVEIKDYRTHNGQANIDMVVRQEHNGKPERRRFKLHFRISNGRVRTMKLNDDS”: the protease stability score stood at 0.733.

Sequence “DDTAVRIWEKLLSALRTGNEQEVEKNLDPNATVVIGDKRVSGREEVKRMVRRLLTTMRLNVKSVENRDQPGHADVQYTVQFNHNGRPREDRWVVIVRVKNGKIQTVVMKENP” registered a protease stability score of 1.12.

The sequence “DDTDQAEKMMEKLKDAFDTGDEDQVLKLADKDVKVDVGDKSYHGKEEYLDLFRHWLKKVDHLRLEVKHVNQNGDEISVTAKLVLDNNGETTDHTLHLVARSVNGDVVLQSMNNG” had a protease stability score of 1.16.

The sequence “DDTHTAEEWFHHLMNILKTNDPDRFANQFDKDARLHYGDTEVRGRENMIEFLRHMVKRIDHQSYTLLQIRVSNGRVEIKVRASMKYDGRVIDDNVEFEADLRGDKIKARQVNIG” displayed a protease stability score of 0.564.

As to “DDTKTARELVENLNEAFEKGDEDQFVSNLPPDARIEVGDRQVHGREQLKKWFDEMVERFDHMRIEVRHVEHHNGDVRVSARMQWQHNGREQSDSVEVVFVNDNGRLKMHVLRYG”, the protease stability score came to 1.5.

“DDTLKRRISELLRAEKHNDPDKINRLFDPNAHIEYGDHRIHGREELKRQITKRMKELRFRIDRVDLEVKGNHARLRIDMTQNHNGTPRRMILDVKINASNGTIHSVDVKLDG” registered a protease stability score of 0.297.

For the sequence “DDTMIRRLTEWWRAFEHNNSNQMKELADPNAKFSYGDKTVTGMDDIAKQLVNEAREMRVEIRHMKVEQHGEKVRVDFEYEIRDNGRPHTNRVVLEAHQHNGKIQSVQVKDDR”, the protease stability score was determined as 0.356.

Take “DDTNVRKVKEYLKAVEHGDEETLRENVDENATVQVGDHSIHGMDNIAKKIKKDRDELRWEIKELEAEAHNGHVNVRVDARYEVNGNPIEDKFTMHFKFENGRVESVEIRVPEEFQKRVDR”: the protease stability score was 0.165.

Sequence “DDTQAREQAHRFMEAMRTGDPDTLRKLMDKDVRVTVGDHTYHGRESVAHAVITMVESIDHISVKDIKVENGTARVDFVVTVNGRRQSYDAVLEVDNGRIRYVQMHEK” came in with a protease stability score of 0.857.

The sequence “DDTQRKRIEEYWTAVKTGDEDRLTELVDEDARVRIGDKEWSGREEIVRRIHDHVRQMRVSLEFKRITVNNGKVQLHAEVEYEHNGKPDTAKVELSMELTNGKFKSNDMQIHK” showed a protease stability score of 0.607.
